For data set [1], the target named is CT5B, recombinant C-terminal construct of MUC5B (D4-B-C-CK domains, residues 4958-5765) (human). Put plainly: SDS-PAGE; purified recombinant protein seen as monomer and dimer; gels of gradient fractions, silver stained (NT5B) or Coomassie stained (CT5B).
Data set [2] concerns the molecule itself. Described as above.

As a reminder, the stoichiometry N is a count of units in the complex or per binding partner. With “CT5B, recombinant C-terminal construct of MUC5B (D4-B-C-CK domains, residues 4958-5765) (domain or fragment)”, the stoichiometry N in data set [1] amounted to 2.

B1: NT5B, recombinant N-terminal construct of MUC5B (D1-D2-D′-D3 domains, residues 26-1304) (domain or fragment, human, UniProt Q9HC84 26-1304, looked up)
chain: QGPVEPSWENAGHTMDGGAPTSSPTRRVSFVPPVTVFPSLSPLNPAHNGRVCSTWGDFHYKTFDGDVFRFPGLCNYVFSEHCRAAYEDFNVQLRRGLVGSRPVVTRVVIKAQGLVLEASNGSVLINGQREELPYSRTGLLVEQSGDYIKVSIRLVLTFLWNGEDSALLELDPKYANQTCGLCGDFNGLPAFNEFYAHNARLTPLQFGNLQKLDGPTEQCPDPLPLPAGNCTDEEGICHRTLLGPAFAECHALVDSTAYLAACAQDLCRCPTCPCATFVEYSRQCAHAGGQPRNWRCPELCPRTCPLNMQHQECGSPCTDTCSNPQRAQLCEDHCVDGCFCPPGTVLDDITHSGCLPLGQCPCTHGGRTYSPGTSFNTTCSSCTCSGGLWQCQDLPCPGTCSVQGGAHISTYDEKLYDLHGDCSYVLSKKCADSSFTVLAELRKCGLTDNENCLKAVTLSLDGGDTAIRVQADGGVFLNSIYTQLPLSAANITLFTPSSFFIVVQTGLGLQLLVQLVPLMQVFVRLDPAHQGQMCGLCGNFNQNQADDFTALSGVVEATGAAFANTWKAQAACANARNSFEDPCSLSVENENYARHWCSRLTDPNSAFSRCHSIINPKPFHSNCMFDTCNCERSEDCLCAALSSYVHACAAKGVQLSDWRDGVCTKYMQNCPKSQRYAYVVDACQPTCRGLSEADVTCSVSFVPVDGCTCPAGTFLNDAGACVPAQECPCYAHGTVLAPGEVVHDEGAVCSCTGGKLSCLGASLQKSTGCAAPMVYLDCSNSSAGTPGAECLRSCHTLDVGCFSTHCVSGCVCPPGLVSDGSGGCIAEEDCPCVHNEATYKPGETIRVDCNTCTCRNRRWECSHRLCLGTCVAYGDGHFITFDGDRYSFEGSCEYILAQDYCGDNTTHGTFRIVTENIPCGTTGTTCSKAIKLFVESYELILQEGTFKAVARGPGGDPPYKIRYMGIFLVIETHGMAVSWDRKTSVFIRLHQDYKGRVCGLCGNFDDNAINDFATRSRSVVGDALEFGNSWKLSPSCPDALAPKDPCTANPFRKSWAQKQCSILHGPTFAACRSQVDSTKYYEACVNDACACDSGGDCECFCTAVAAYAQACHDAGLCVSWRTPDTCPLFCDFYNPHGGCEWHYQPCGAPCLKTCRNPSGHCLVDLPGLEGCYPKCPPSQPFFNEDQMKCVAQCGCYDKDGNYYDVGARVPTAENCQSCNCTPSGIQCAHSLEACTCTYEDRTYSYQDVIYNTTDGLGACLIAICGSNGTIIRKAVACPG
notes: MUC5B, human, D1-D2-D′-D3 domains, residues 26-1304; Purified as a mixture of monomer and dimer (75 and 150 kDa as printed); also called N-terminal MUC5B protein
For B1, in data set [2], the “stoichiometry N” value stood at 2.
